Here are results for two molecules from patent US20020156009A1 (published 2002).

Test [1] has as its target interleukin-1 (IL-1) receptor on human cells (human) (UniProt P14778). Nature of the test: cell-based or functional assay.
In test [2] the target is T1, bovine serum albumin (BSA) (bovine, UniProt P02769 25-607).
T1 construct: also called non-related protein
The test can be described thus: FACS on human fibroblast cells (CCD 1089). As for the experimental part:
A cell binding assay was carried out, in a modification of the procedure as described above in Example 7.1, to determine if IL-1 Hy2 of the invention binds to the interleukin-1 (IL-1) receptor. Briefly, fluorescent activated cell sorting (FACS) was used to measure cell binding of the recombinant protein (see Example 6) using fluorescent antibodies specific for the express tag on the IL-1 Hy2 recombinant protein. In each reaction, 10⁶ cells of human fibroblast cells (CCD 1089) were suspended in 100 μl of FACS buffer (containing distilled PBS, 3% calf serum and 0.01% azide). Cell binding reactions included 5 nM recombinant IL-1 Hy2 in 100 μl cell suspension. The cells were incubated on ice for one hour. The cells were pelleted by centrifugation, 200 μl of 0.2 mM BS3 (crosslinker) was added, and the cells were kept on ice for 30 minutes. Next, 10 μl […] pH 7.5 was added and the cells were incubated for 15 minutes on ice. The cells were pelleted by centrifugation, washed one time in FACS buffer, resuspended in 100 μl volume of FACS buffer, 2 μl primary antibody (anti-express tag antibody 1 mg/ml) was added, and incubation continued on ice for an additional 30 minutes. […] The cells were again pelleted by centrifugation, washed two times with FACS buffer, resuspended in 0.5 ml FACS buffer and analyzed on FACS.

T1 sequence (P02769 25-607 limits assumed): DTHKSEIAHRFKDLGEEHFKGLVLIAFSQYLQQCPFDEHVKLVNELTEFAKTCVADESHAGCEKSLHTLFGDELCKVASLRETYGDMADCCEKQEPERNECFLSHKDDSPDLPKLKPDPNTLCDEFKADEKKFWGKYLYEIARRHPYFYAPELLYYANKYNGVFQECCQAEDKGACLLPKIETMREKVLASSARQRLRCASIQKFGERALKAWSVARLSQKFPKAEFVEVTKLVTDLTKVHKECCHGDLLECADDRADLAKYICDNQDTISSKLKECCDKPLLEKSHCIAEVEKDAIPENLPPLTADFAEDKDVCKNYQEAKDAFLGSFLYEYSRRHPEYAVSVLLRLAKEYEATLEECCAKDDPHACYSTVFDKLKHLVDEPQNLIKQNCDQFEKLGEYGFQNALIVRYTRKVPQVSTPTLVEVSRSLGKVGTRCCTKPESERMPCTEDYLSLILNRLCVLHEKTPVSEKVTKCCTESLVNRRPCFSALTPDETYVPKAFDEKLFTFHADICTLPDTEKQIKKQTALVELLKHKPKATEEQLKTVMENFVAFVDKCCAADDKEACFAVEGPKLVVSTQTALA

In the case of “IL-1 Hy2 (preparation used in the cell-based activity assays) (from UniProt Q8WWZ1 1-152) (ligand)”, the inhibition of IL-1β induced PGE2 production, human fibroblasts (CCD 1098), 1 ng/ml IL-1β, IL-1 Hy2 at 1000 fold excess, PGE2 ELISA in test [1] lay in the range of 40 to 60%.

B1: interleukin-1 (IL-1) receptor on human cells (receptor, UniProt P14778 18-569, looked up)
chain: LEADKCKEREEKIILVSSANEIDVRPCPLNPNEHKGTITWYKDDSKTPVSTEQASRIHQHKEKLWFVPAKVEDSGHYYCVVRNSSYCLRIKISAKFVENEPNLCYNAQAIFKQKLPVAGDGGLVCPYMEFFKNENNELPKLQWYKDCKPLLLDNIHFSGVKDRLIVMNVAEKHRGNYTCHASYTYLGKQYPITRVIEFITLEENKPTRPVIVSPANETMEVDLGSQIQLICNVTGQLSDIAYWKWNGSVIDEDDPVLGEDYYSVENPANKRRSTLITVLNISEIESRFYKHPFTCFAKNTHGIDAAYIQLIYPVTNFQKHMIGICVTLTVIIVCSVFIYKIFKIDIVLWYRDSCYDFLPIKASDGKTYDAYILYPKTVGEGSTSDCDIFVFKVLPEVLEKQCGYKLFIYGRDDYVGEDIVEVINENVKKSRRLIIILVRETSGFSWLGGSSEEQIAMYNALVQDGIKVVLLELEKIQDYEKMPESIKFIKQKHGAIRWSGDFTQGPQSAKTRFWKNVRYHMPVQRRSPSSKHQLLSPATKEKLQREAHVPLG
notes: whole, on cells
Turning to B1, in test [2], the binding result is reported as “no binding (tested: same molarity as IL-1 Hy2 (5 nM))”.
